Measurements reported in US20210395318A1.
Values joined by “and” are separate entries in the source; they are usually repeats but may differ in a detail not shown here. Equal values may be shown once.

Target: human CD40 on primary human B cells or human monocyte-derived dendritic cells (human) (UniProt P25942)
Assay: cell-based or functional assay

human CD40 on primary human B cells or human monocyte-derived dendritic cells (human), sequence (P25942 21-277 H80K/K81H limits assumed): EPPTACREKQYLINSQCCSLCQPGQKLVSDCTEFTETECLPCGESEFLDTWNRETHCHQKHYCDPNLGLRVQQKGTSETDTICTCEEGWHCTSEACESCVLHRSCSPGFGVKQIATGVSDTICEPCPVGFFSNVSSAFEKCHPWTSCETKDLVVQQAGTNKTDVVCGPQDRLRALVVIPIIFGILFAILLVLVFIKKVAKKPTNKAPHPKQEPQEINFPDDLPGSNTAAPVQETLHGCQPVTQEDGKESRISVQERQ

Question: With “anti-CD40 monoclonal antibody (corresponds to sequence 21.4.1 of U.S. Pat. No. 7,338,660 B2)” as the substance, how does the EC50, % CD86, human B cells with FAP-CHO cells, w HSA read?
Answer: The EC50, % CD86, human B cells with FAP-CHO cells, w HSA was 0.88 nM and 0.3 nM.

Question: What about the EC50, % CD86, human B cells with FAP-CHO cells, w/o HSA of the same substance?
Answer: Its EC50, % CD86, human B cells with FAP-CHO cells, w/o HSA is 1.9 nM and 0.51 nM.

Question: What about the EC50, MFI CD86, human B cells with FAP-CHO cells, w HSA of the same substance?
Answer: Its EC50, MFI CD86, human B cells with FAP-CHO cells, w HSA is 0.51 nM and 2.05 nM.

Question: And the EC50, MFI CD86, human B cells with FAP-CHO cells, w/o HSA?
Answer: The EC50, MFI CD86, human B cells with FAP-CHO cells, w/o HSA was 1.13 nM and 4.73 nM.

Question: What about the Efficacy [MFI at highest dose], MFI CD86, human B cells with FAP-CHO cells, w HSA of the same substance?
Answer: The Efficacy [MFI at highest dose], MFI CD86, human B cells with FAP-CHO cells, w HSA was 1530 MFI and 1870 MFI.

Question: And the Efficacy [MFI at highest dose], MFI CD86, human B cells with FAP-CHO cells, w/o HSA?
Answer: Its Efficacy [MFI at highest dose], MFI CD86, human B cells with FAP-CHO cells, w/o HSA is 1340 MFI and 2060 MFI.

Question: What about the Efficacy [MFI at highest dose], MFI CD86, human B cells with WT-CHO cells (no FAP), w HSA of the same substance?
Answer: Its Efficacy [MFI at highest dose], MFI CD86, human B cells with WT-CHO cells (no FAP), w HSA is 1900 MFI and 1470 MFI.

Question: What about the Efficacy [MFI at highest dose], MFI CD86, human B cells with WT-CHO cells (no FAP), w/o HSA of the same substance?
Answer: Its Efficacy [MFI at highest dose], MFI CD86, human B cells with WT-CHO cells (no FAP), w/o HSA is 2050 MFI and 1390 MFI.
